Columns and labels:
[1] = molecular target: T1, Influenza A group 1 HA Foldon.6×His (Influenza A virus (H1N1)); test: SPR (Biacore 8k), 37C; HA Foldon-6xHis captured via anti-His, bsAb injected
T1 construct: also called HA-6×His; HA.6×His

[2] = molecular target: T1, Influenza A group 1 HA Foldon.6×His; test: SPR (Biacore 8k), 25C; HA Foldon-6xHis captured via anti-His, bsAb injected

B1: REGN6093, anti-Influenza HA x anti-C1q bispecific antibody (bispecific antibody, V domains shown)
VH 1: QVHLVQSGPEVKKPGSSVKVSCKASGVTFISHAISWVRQAPGQGLEWVGGIIAIFGTTNYAQKFQGRVTVTTDKSTNTVYMELSRLRSEDTAIYYCARGETYYEGNFDFWGQGTLVTVSS
VH 2: EVQLVESGGGVVQPGGSLRLSCAASGFSLDDYAMHWVRQTPGKGLEWVSLISGDGSRTSYADSVKGRFTISRDNSKNSLYLKMNSLRTEDTALYYCTKDPHNSNWFDPWGQGTLVTVSS
VL: not shown
notes: also called FluA group 1 x C1q bispecific; anti-HA x anti-C1q
For B1, the Kd [1] was 0.519 nM, the koff [1] was 5.15e-05 s⁻¹ and the kon [1] was 99400 M⁻¹ s⁻¹. The t½ [1] was 3.74 h, the Kd [2] was 1.11 nM and the koff [2] was 0.000175 s⁻¹. The kon [2] was 158000 M⁻¹ s⁻¹ and the t1/2 [2] was 1.1 h.

— US20220153819A1 (Regeneron, published 2022)
